Measured values taken from the RNAGym collection of RNA variant scans (doi:10.7554/elife.90254).

B1: LINE1-full (parent)
chain: UACGUAGGUGGUUUUCCCCUGAUAGUGCUAAGGGGGCCUGGAAGUUUGGACUGGGCAGAGCUCAACACAGCGUGGCAAAGUGGCUGUGGCUAGACUGCCUCUCUGGAUUCCUCGUCACUCAGCAGGGCAUCUCUGAGAGAAAUGCC

Variants of: B1
Assay: self-cleavage, relative activity (ratio to wild type); higher = more cleavage; in vitro, sequencing; the parent is a self-cleaving ribozyme

First: U26C A107C
Second: G36C C146U
The self-cleavage of the first is higher: 1.89 for the first, 1.29 for the second.

First: U73A C110A
Second: A30G A43U
The self-cleavage of the first is lower: 0.94 for the first, 1.5 for the second.

Compared with A92U U104C, U14G A79G is lower in self-cleavage: 0.96 for the first, 0.42 for the second.

Compared with U112C A142G, A92U C146G is lower in self-cleavage: 1.43 for the first, 0.41 for the second.

Compared with U15G C118U, C3U U87A is lower in self-cleavage: 0.97 for the first, 0.18 for the second.

Going from A22G A107U to A22G C131G, the self-cleavage rises from 0 to 1.8.

First: U52A A78G
Second: U1C C76U
The self-cleavage of the first is lower: 1.43 for the first, 1.56 for the second.

Compared with A77G U143G, A77G U143A is lower in self-cleavage: 2.99 for the first, 1.85 for the second.

First: G34A G114A
Second: G60A A121U
The self-cleavage of the first is higher: 1.47 for the first, 0.1 for the second.

Compared with U81A U143C, U23A U39C is lower in self-cleavage: 1.95 for the first, 0.65 for the second.

Compared with U102A U115A, U39C U134G is lower in self-cleavage: 1.43 for the first, 1.39 for the second.

First: U13A G82U
Second: U23C U115C
The self-cleavage of the first is lower: 0.65 for the first, 1.16 for the second.

Going from U14C G88A to A31G U100C, the self-cleavage rises from 0.09 to 1.29.

First: A30U G48U
Second: G53U U85A
The self-cleavage of the first is higher: 0.71 for the first, 0.11 for the second.

Compared with A117C U143A, U20A U100A is lower in self-cleavage: 1.38 for the first, 0.78 for the second.

Compared with U29C C116U, A65G A121U is lower in self-cleavage: 0.85 for the first, 0.04 for the second.

Going from U14C C68U to A77C A78G, the self-cleavage rises from 0.32 to 1.63.

First: A57U C120A
Second: U15C A78G
The self-cleavage of the first is lower: 0.05 for the first, 1.34 for the second.

Going from C111A to A65C A124G, the self-cleavage falls from 1.25 to 0.1.

First: A22G U112C
Second: G4A U39C
The self-cleavage of the first is lower: 1.25 for the first, 1.31 for the second.

First: G36C U96C
Second: U23C U132C
The self-cleavage of the first is lower: 0.17 for the first, 1.58 for the second.

Compared with U109A U143A, C61U G105A is lower in self-cleavage: 1.75 for the first, 0.02 for the second.

Compared with C71U U115A, A22G A65G is lower in self-cleavage: 0.85 for the first, 0.08 for the second.

Going from U45G A121C to U109A A121G, the self-cleavage falls from 2.14 to 1.82.

Compared with A69G U134A, A30G G74A is higher in self-cleavage: 0.37 for the first, 0.56 for the second.

First: G70A A142G
Second: U14G G36U
The self-cleavage of the first is lower: 0.11 for the first, 1.51 for the second.

Compared with A77U A117C, A77U C90U is lower in self-cleavage: 1.76 for the first, 0.03 for the second.

Going from A64U A129G to U12C G33U, the self-cleavage rises from 0.66 to 1.36.

Compared with U81A U134A, U5A C110U is lower in self-cleavage: 2.49 for the first, 0.34 for the second.

First: U115G
Second: U9C U46A
The self-cleavage of the first is higher: 1.5 for the first, 1.18 for the second.

Compared with C38U U52A, U85G A107G is lower in self-cleavage: 1.25 for the first, 0.09 for the second.

Compared with G35A A65G, U5C G137A is higher in self-cleavage: 0.05 for the first, 1.38 for the second.

Going from U29G to U9A C99A, the self-cleavage falls from 1.1 to 0.67.

First: U87C C145G
Second: U102A C116U
The self-cleavage of the first is lower: 0.32 for the first, 0.97 for the second.

First: U52A G55A
Second: U73C G88U
The self-cleavage of the first is higher: 0.3 for the first, 0.13 for the second.

First: G72A G105U
Second: A65G C84U
The self-cleavage of the first is higher: 1.29 for the first, 0.06 for the second.

First: U104G A140G
Second: U100A A124G
The self-cleavage of the first is lower: 0.73 for the first, 1.02 for the second.

First: A57U U102A
Second: U47G U81C
The self-cleavage of the first is higher: 0.08 for the first, 0 for the second.

Compared with C38U A78G, C63A A117G is lower in self-cleavage: 1.28 for the first, 0.08 for the second.

Going from A79G U130G to C17U U23C, the self-cleavage falls from 2.51 to 0.68.

Compared with A67U G75A, A31U C146A is higher in self-cleavage: 0.09 for the first, 0.88 for the second.

First: U87C A107G
Second: G93U U108C
The self-cleavage of the first is higher: 0.27 for the first, 0.05 for the second.

Compared with A69U U130C, A50G G82A is higher in self-cleavage: 0.05 for the first, 1.04 for the second.

Going from U23A A121G to A42G G80A, the self-cleavage rises from 1.41 to 2.61.

Compared with U45G A107G, U73C A141G is higher in self-cleavage: 0 for the first, 1.62 for the second.

Going from U15C G44A to G34A A77U, the self-cleavage falls from 1.41 to 1.33.

Going from U20A U143A to U14C C18A, the self-cleavage falls from 1.43 to 1.24.

First: G97A U112A
Second: U26A U115C
The self-cleavage of the first is lower: 0.16 for the first, 1.29 for the second.

Going from A24G A42G to G49C A59G, the self-cleavage falls from 1.11 to 0.12.

Going from C18A U62C to A79G G97A, the self-cleavage falls from 0.11 to 0.08.

Going from U23A A31U to C3U U26C, the self-cleavage rises from 0.37 to 1.01.

First: U5C G75A
Second: A24G
The self-cleavage of the first is lower: 1.15 for the first, 1.17 for the second.

Compared with A24U, U1A A77G is higher in self-cleavage: 1.25 for the first, 1.66 for the second.

U62C A92G and U62C U81A are the same in self-cleavage: 0.04 for the first, 0.04 for the second.

Compared with A64G A94U, U104C A141C is higher in self-cleavage: 0.08 for the first, 1.73 for the second.

Going from A138G C146A to C28U A140U, the self-cleavage falls from 1.17 to 0.95.

Going from C101U to U52A G82A, the self-cleavage rises from 1.39 to 1.63.

Going from G82A A140G to U85A G125A, the self-cleavage falls from 0.93 to 0.04.

Compared with C111A A141U, A2G G55U is lower in self-cleavage: 1.14 for the first, 0.49 for the second.

Compared with A43U U132A, A121G G126A is higher in self-cleavage: 1.15 for the first, 1.24 for the second.

Compared with A2U U143A, U26C A78G is higher in self-cleavage: 1 for the first, 1.1 for the second.

First: U9C U87A
Second: C76U G82A
The self-cleavage of the first is lower: 0.2 for the first, 2.8 for the second.

Going from U46C C56A to U15C G127A, the self-cleavage rises from 0.28 to 1.05.

Compared with U1C G105A, U112G A136C is higher in self-cleavage: 0.12 for the first, 0.61 for the second.

Compared with G49U U96A, C3A A67G is higher in self-cleavage: 0.02 for the first, 0.56 for the second.

First: U39C G83A
Second: U100C A141U
The self-cleavage of the first is lower: 0.2 for the first, 1.08 for the second.

First: G106U A117G
Second: C71U U85C
The self-cleavage of the first is higher: 1.22 for the first, 0.06 for the second.

Compared with U73A U108A, A24G G53U is lower in self-cleavage: 1.42 for the first, 1.03 for the second.

Going from U14C U96A to U1C C146U, the self-cleavage rises from 0.13 to 1.08.

First: U87A U109C
Second: A24G A64U
The self-cleavage of the first is lower: 0.11 for the first, 0.47 for the second.

First: A117C
Second: U81C A92G
The self-cleavage of the first is higher: 1.75 for the first, 0 for the second.

First: U13C U130C
Second: C123G A124G
The self-cleavage of the first is higher: 1.2 for the first, 0.74 for the second.

First: U13A U85C
Second: C19U U29C
The self-cleavage of the first is lower: 0.13 for the first, 1.37 for the second.

Compared with A94G A136G, C28A C131G is lower in self-cleavage: 0.34 for the first, 0.33 for the second.

Going from U20A C71U to U23C U91A, the self-cleavage falls from 1.22 to 0.8.

First: A2G A92C
Second: C3U U52C
The self-cleavage of the first is lower: 0.13 for the first, 1.31 for the second.

Going from G35A A69U to U85A C98A, the self-cleavage rises from 0.02 to 0.07.

Compared with G114A U115C, A30G U104A is lower in self-cleavage: 1.58 for the first, 0.61 for the second.

Going from U13G A121G to U102C A142U, the self-cleavage rises from 1.1 to 1.26.

Going from U85C U100A to C120A G139U, the self-cleavage rises from 0 to 1.59.

Going from U15C G125A to C71A A140G, the self-cleavage falls from 0.87 to 0.23.

Compared with U39C C61G, A50U U85A is lower in self-cleavage: 0.07 for the first, 0.05 for the second.

First: A117U C131A
Second: U26C U143A
The self-cleavage of the first is lower: 1.27 for the first, 1.44 for the second.

Variant G10U U130C has a self-cleavage of 0.81.
